Test results as given in a protein production outcome set (Wang et al. 2014).

Test: label from the status in PepcDB records
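Also: failed if final PepcDB status was selected cloned or expressed and not failed if soluble or beyond.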

Sequence	protein production
MSLGRTDAIALAYPSRPRVLNNSTFLEMISWIGIELGKRGLDLLLIPDEPGEKYQSLIHLVETRRVDALIVAHTQPEDFRLQYLQKQNFPFLALGRSHLPKPYAWFDFDNHAGASLAVKRLLELGHQRIAFVSTDARISYVDQRLQGYVQTMSEAGLMPLAGYLQKADPTRPGGYLAASRLLALEVPPTAIITDCNMLGDGVASALDKAGLLGGEGISLIAYDGLPDDSLLDIAVTPIVQNTRTSVGKQIASMICDLLGGKDPKELQVLWQPEIGEGETDGVNRRGEGHHHHHH	not failed
MKFLTVSDDMNFLRQVNTLVAGKGDMDSVIIGEGDAKGLGSKVLYRAKKGTPFDAVSEGILKIAGNYDYIAIGSTEVGREIAGYLSFKTGFYTATEIFSLEFNGQKAHTKRFFYGGKTVIEEESDARILTVAPGVIEAKDLGTTPEIRDLEIGQSRIKITKFVSKAGGSVRLEDAKVIVSVGRGIGSKENIAKIEPLAKALNGEIAGSRPVCMDYGWLSEDRQVGLSGKKVSPKVYIALGISGQIQHIAGMRNSKTVIAINKDKNAPIFQECDYGIVGDLFTVVPKILEQLKQ	failed
MQYGAIVVTFNRKQLLIESITALLNQTVPPAKIIIIDNHSTDGTKAELQTADILANPSVDYRYLTKNIGGAGGFARGMQIAAADPNLDWASMSDDDAIFEPDYFEKLIAYQQDHPNRQILTGSVYIEDGRLQADQRNRFTNWSTFQAQAVPEREYRGNFEFDQYTFCGVFMSVAVIKQVGVADAGYFIWWDDCEYAVRTAKLSRPVNVSAAKLIHKTALPSLDFKSKFVPDWRLYYGQRNRLITIKRWRANSLVSLGWLLGFYARLAIQLCGPFYRGYRKMVIRVYLEALRDASREREGLNPNFMPGQKFLEHHHHHH	not failed
MKMDTGALTFQQKIYWLVKQIPLGRVATYGQIAALCGWPRHGRYVGYALYRVAPNSDIPWHRVVNAQGKISYAPQRRGTDELQRWRLAAEGIIFTAGDRINLRRYQWQPPATVYQQLIWPEGAATDSAKAKVG	failed
MEPKVTIHRYYSRQAKYEGAVEADLELCIKHCGGDVVRIELVNRLHGIQLQRKLRRLLLLMFLSIAYFVGTCGFDNRTISFLQPRILYPLITCASVAILLIRSTLNLVQAERLFYSWDMALQMETVRSFGRESVLCVQRGHIEDIVLNEVIEDLDVKYMLILRTKGSQFKKRPIIPLFNSQSPSIECLQHTYHVLHKYWLNSTKDRSEESYSKDKQSLVNS	failed
MKIAILYREEREKEGEFLKEKISKEHEVIEFGEANAPGRVTADLIVVVGGDGTVLKAAKKAADGTPMVGFKAGRLGFLTSYTLDEIDRFLEDLRNWNFREETRWFIQIESELGNHLALNDVTLERDLSGKMVEIEVEVEHHSSMWFFADGVVISTPTGSTAYSLSIGGPIIFPECEVLEISPIAPQFFLTRSVVIPSNFKVVVESQRDINMLVDGVLTGKTKRIEVKKSRRYVRILRPPEYDYVTVIRDKLGYGRRIE	not failed
MSESVNKKITDGNYDKTLAVKCVNGTFVGKKTEGVIAYKGIPFVGQQPVGKLRWKAPVDVTPSNDVYEAYNYEKAPVQAPGDPAIENGMGEDCLYLNIWRADETVTEKKPVIVWIYGGGFEVGGTSDPQYDCHSLVKENPDVILVSLAYRVSFFGFMHLSHLSDGKDYQDAPNLGLLDQLMGLKWVHENIANFGGDPDNVTIWGESAGGASVTLLPLIKGSHQYFKRVIAQSGAPAQTRSEEQAIAITDHVMKELGCKTVADLLKVSAQEFADTWARLYGFYQVLGIRTFPERDGRCLPLNPWEAYANGAAKDITFLQGCNKDEMNTFLGSIGVDRWNAWANQRKAEKLIQLTDEEKALVESYCNDIQGESYEPTVRLFSQIMFQVPQIRLSEEQTKGGGKSYTYLFTPESSVPLIKCGHITELSALFNHPEITAFTGRAYDETFCKTMRKMWIQFAKTGNPSLTAEMSPDGKAKEWPLYDTEKKVMVLDEQNIHPAKESELKIVDWERTYFLTNYYMP	failed
MENDKHNNPKTIFIPDDIAEGIFHHLPIKSLARFKVLSKKWTSMIESTYFSHKRLIRTGLPTPNMKFLHISQHFTANFVEEYSNSITFLLETFSRDDQNNRKTFDESQNKTIQVLGSCDGLVLLRIHDDFRSIYLINPTTKEHMKLSPEFMQWPFTLSYLTPAMANKPWRQLSQSVLDYDISVKRMPSLAGFGKDIVKKSYKVVLIYTRYEIHDHEFKAKVLSLDNGEQRDVGFYDIHHCIFCDEQTSVYANGSLFWLTLKKLSQTSYQLLAIDLHTEEFRWILLPECDTKYATNIEMWNLNERLCLSDVLESSNLVVWSLHQEYPTEKWEKIYSIKIDVIRTNQLHEKFWMLGLAAAYFSNIRNRQDQVSFFRQRTISYLPTMISPSNLML	failed
MFLSAASSIIYLLLFFIASLIILVFSSDAFFDNAVPMFRSRGIGDMYAGTIFVGFASVLDEIALSASSLIFRHPEIGIGAVEGSNLITMAFFTVIVAVSYLEVAGEFTLDMIVILVLTILSMVFAEIFVHIPWFYSIALFVPFVVYLVIKAGGSKEAGYGPQEYSNIVLIVSFFLIFLSSDTLVRSTIGIASYTGINLVDLSAYGIGMVSSFPEIIMILVSLRGGRKVVSMGIFTGSTVYKMSLIPGIIIVSEPTGFSDIFYMLLAILVMSLLVLFLGIMSRKSQGRSNIH	failed
SEITVSEFLLDFLNKYSENISLATYNNYVSICKNYINPSIGKYKIQDLHPVHIQNYIDKLSYKLNPQSIKIHINILKLAIKRAYRLKLIKENVMDSIKAP	failed
MAKKKNVSVISVEKPTWFPLTDETGAFPVYGAPITIGTAVSIKPDVTTETTPDYGDSVVQDQYVAFGGAEVTLETNGYQNEVLAEITGGKKLKGGVLRSADDIASDGAFAYRRRKSNGKYRYTIFYKGKFALTSDETSTLEGSSVSYTHPEWTGSFVDVPGLGYMYSVDEDDEGVDLEMIKNWFTEVMDPRKENTTAVTGVTLDQTELNLKVGQTATLTPTITPDNASNKKYQFRSESEAIGTVTPIQGKVTAVGEGTTEIVVTTEDGNFTAKCTLNVTTADLEHHHHHH	failed
MSKVLQISSAIPELDYANIPKEIIPFLASYNLIPQLLSQRIIESAIAPITCTQAEISHALDQFYQHWDLTTAEKIKDWCLRYGLNAEKLKLLATRKLRVEKFKQINWRHQLESYFLKRKKYLDRVIYSLIQTENKSVVNELFFRIAEGEDSFAELARKYSQGAEADRGGIIGPVELGSITPNFAQLLYTSQVGVVQPPVAFGNTWVIVRVEKLIPAQLDDFMRQRLLQENFEDWFQQQLNQLSPEEKIWMGINPKSDQVQEMA	failed
MRDTRESRLLLVLLVAIAFALITVDIRGGQDSPVDGARQAAATVFGPIENGVSSAVDPVGNAVAAVRDSGSRHDRIAQLEHDNAALKAKLGSDDRNRSRLKQLNKMIRVAGEGQYGIKGAEVIGIGAAQGFSWTVTIDVGANDGIKRDMTVLNGDGLVGRVTTVGPNAATVLLANDPDFTVGTRMESSDELGFASGQGDRPLRVQLLNGKAKVVKGDRLVTFGSQADRPFVPGVPVGVVSRVDPSGGDLTRTVYVTPYVSFTKLDIVGVVVAAPKKDPRDEVLPPKPRPTPTPTVTVTVTPSANASADGQQQQQ	failed
MAASLSEGVPETEDRKRPQFGNRFLSDPARVFHHNAWDNVKWSEEQAAAAERKVQENSSQLVCPEKQADYEVNAHKYWDDFYKVHENGFFKDRHWLFTEFPELAPSHDHLVNLHLEKQKNEVSKPRSSEDGPGLAAEQHKRPCTSHGCETRVPPVEEPVTQKLTHLEICADDFPGSSATYRILEVGCGVGNTVFPILQTNNNPDLFVYCCDFSATAIELVKTNSEYDPSRCFAFVHDLCDEDQSYPMPKDSLDVIVLIFVLSAIVPDKMQKAISKLSRLLKPGGVMLLRDYGRYDMAQLRFKKGQCLSGNFYVRGDGTRVYFFTQDELDTLFTAAGLEKVQNVVDRRLQVNRGKQLTMYRVWIQCKYSKPLVPSASQHVPTPHTTXVLRIWGFC	failed
MDYLVKALAYDGKVRAYAARTTDMVNEGQRRHGTWPTASAALGRTMTASLMLGAMLKGDDKLTVKIEGGGPIGAIVADANAKGEVRAYVSNPQVHFDLNEQGKLDVRRAVGTNGTLSVVKDLGLREFFTGQVEIVSGELGDDFTYYLVSSEQVPSSVGVGVLVNPDNTILAAGGFIIQLMPGTDDETITKIEQRLSQVEPISKLIQKGLTPEEILEEVLGEKPEILETMPVRFHCPCSKERFETAILGLGKKEIQDMIEEDGQAEAVCHFCNEKYLFTKEELEGLRDQTTR	not failed
MKLQTTIQHEPKDGSGFDRGLREFFEYRDTGVNEATGGMFGAHVIRAIPGKEAKPTWHTHTVGFQLFYVLRGWVEFEYEDIGAVMLEAGGSAFQPPGVRHRELRHSDDLEVLEIVSPAGFATSVVDLEEARKP	not failed
